Test results taken from the nanobody polyreactivity screen of Harvey et al. (2022).

Assay: yeast display, Sf9 membrane polyspecificity reagent, FACS + sequencing; frameworks hold sequencing errors
Outline: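 A synthetic nanobody library was expressed on Saccharomyces cerevisiae BJ5465 by galactose induction for 36–48 hours. The library was stained for 1 hour at 4 °C with 10% biotinylated, detergent-solubilized Sf9 membrane reagent and enriched with streptavidin microbeads before FACS. Low and high (top ~1%) gates were set on anti-HA fluorescence for expression and streptavidin fluorescence for reagent binding, and each polyreactivity label reflects the gate of origin.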

QVQLVESGGGLVQAGGSLRLSCAASGSIFTPNAMGWYRQAPGKERELVAAISWSGGGTYYADSVKGRFTISRDNAKNTVYLQMNSLKPEDTADYYCAVDFRYQDAYEYYWGQGTQVTVSS
polyreactivity (PSR sort gate): low polyreactivity

QVQLVESGGVLVQAGGSLRLSCAASGRIFRYYAMGWYRQAPGKERELVAAISSDGSTDYADSVKGRFTISRDNAKNTVYLLMNSLKPEDTAVYYCAASVVSYGHDYWGQGTQVTVSS
polyreactivity (PSR sort gate): low polyreactivity

QVQLVESGGGLVQAGGSLRLSCAASGRTFPLNAMGWYRQAPGKERELVAAITWSGGRTYYADSVKGRFTISRDNAKNTVYLQMNSLKPEDTAVYYCNVDKVTSWYYYGYWGQGTQVTVSS
polyreactivity (PSR sort gate): low polyreactivity

QVQLEESGGGLVQAGGSLRLSCAASGSTFCYYPMGWYRQAPGKEREFVAAISSSGGSTYYADYVKGRFTISRDNAKNTVYFQMNSLKPEDTAVYYCARVGFPGFYWGQGTEVTVSS
polyreactivity (PSR sort gate): high polyreactivity

QVQLVESGGGLVQAGGSLRLSCAASGRIFYLYAMGWYRQAPGKERELVAAITWSGGSTTYADSVKGRFTISRDNAKNTVYLQMNSLKPEDTAVYYCNADGWIFPSFSPMDYWGQGTQVTVSS
polyreactivity (PSR sort gate): low polyreactivity

QVQLVESGGGLVQAGGSLRLSCAASGRTFAVYAMGWYRQAPGKERELVAAISGRGGNTYYADSVKGRFTISRDNAKNTVYFQMNSLKPEDTAVYYCAAKAYQSEYGYWGQGTQVTVSS
polyreactivity (PSR sort gate): high polyreactivity

QVQLVESGGGLVQAGGSLRLSCAASGRIFVQNAMGWYRQAPGKERELVAAISASGGRTSYADSVKGRFTISRDNAKNTVYLQMNSLKPEDTAVYYCAALFRVYPLTKKYGYWGQGTQVTVSS
polyreactivity (PSR sort gate): high polyreactivity

QVQLVESGGGLVQAGGSLRLTCAASGSIFEGNAMGWYRQAPGKESELVASISGDGSTNYADSVKGRFTISRDNAKNSVYLQMNSLKPEDTAVYYCNADTISEPGFHMDYWGQGNQVTVSS
polyreactivity (PSR sort gate): low polyreactivity

QVQLVESGGGLVQAGGSLRLSCAAYGGIFKQYALGCYRQAPGKERELVAANTWSGGSTYYADSVKGRFTISRDNAKNTVYLQMNSLKPEDTAVYYCAKDYVLFQYVDFQDDDYWGQGTQVTVSS
polyreactivity (PSR sort gate): low polyreactivity

QVQLVESGGGLVQAGGSLRLSCAASGRIFTGNVMRWYRQAPGKERELVAAISYGGGSTNYSDSVKGRFTISRDNAKNTVYLQMNSLKQEDTAVYYCAACIKRYLSYYTRYGYWGQGTQVTVSS
polyreactivity (PSR sort gate): high polyreactivity

QVQLVESGGGLVQAGGSLRLSCAASGRTFKYNAMGWYRQAPGKERELVAAITSSGGRTYYADSVKGRFTISRDNAKNTVYLQMNSLKPEDTAVYYCAARGYPSDYKYEYNYWGQGTQVTVSS
polyreactivity (PSR sort gate): high polyreactivity

QVQLVESGGGLVQAGGSLRLSCAASGSTFVTYAMGRYRQAPGKERELVAAISSAGSTNYADSVKGRFTISRDNAKNTVYLQMNSLKPEDTAVYYCARDIQDTYEFDYWGQGTQVTVSS
polyreactivity (PSR sort gate): low polyreactivity

QVQLVESGGGLVQAGGSLRLSCGASGLTCREYAMGWYRQAPGKERELVAAITSTGGNTYYADSVKGRFPISRDNAKNTVYLQMNSLTPEDTAVYYCAARTTRRVTSGKFDYWGQGTQVTVSS
polyreactivity (PSR sort gate): high polyreactivity

QVQLVESGGGLVQAGGSLRLSCAASGFTFISNAMGWYRKAPGKERELVAAISSSGGRTYYADSVKGRFTISRDNAKNTVYLQMNSLKPEDTAVYYCNADRSLLYSRKIEYDYWGQGTQVTVSS
polyreactivity (PSR sort gate): low polyreactivity

QVQLVESGGGLVQAGGSLRLSCAASGRIFSSYAMGWYRQAPGKERELVAAISSRGGSTYYADSVKGRFTIARDNAKNTVYLQMNSLKPEDTAVYYCARVKYSGVVYKYDYWGQGTQVTVSS
polyreactivity (PSR sort gate): high polyreactivity

QVQLVESGGGLVQAGGSLRLSCAASGFIFFYYAMGWYRQAPGKERELVAAISASGGSTYYADSVKGRFTISRDNAKNTVYLQLNSLKPEDTAVYYCAARYRKAESARWEYGYWGQGTQVTVSS
polyreactivity (PSR sort gate): high polyreactivity

QVQLVESGGGLVQAGGSLRLSCAASGFIFRYYAMGWYRQAPGKERELVAAISNNAGRTYYADSVKGRFTISRDNAKNTVYLQMNSLKPEDTAVYYCAARVWTGRKYDYWGQGTQVTVSS
polyreactivity (PSR sort gate): high polyreactivity

QVQLVESGGGLVHAGGSLRLSCAASGRTFWSYSMGWYRQAPGKEREFVAAISRRGGITYYADSVKGRFTISRDNAKTTVYLQMNSLKPEDTAVFYCAKGALSYYGGQVKYDYWGQGTQVTVSS
polyreactivity (PSR sort gate): high polyreactivity

QVQLVESGGGLVQAGGSLRLSCAASGSIFRLYAMGWYRQAPGKEREFVARIRWRGGSTNYADSVKGRFTISRDNAKNTVYLQMNSLKPEDTAVYYCAAKQGTVRAHTYVPWYDYWGQGTQVTVSS
polyreactivity (PSR sort gate): high polyreactivity

QVQLVESGGGLVQAGGSLRLSCAASGRTFGFNVMGWYRQAPGKERELVAAISRSGGSTYYADSVKGRFTISRDNAKNTVYLQMNRLKPEDTAVYYCNKRYVHRYGYWGPGTQVTVSS
polyreactivity (PSR sort gate): low polyreactivity

QVQLVESGGGLVQAGGSLRLSCAASGFIFPWYTRGWYRQAPGKERELVAVINQSGGSTYYADSVKGRFTISRDNAKNTVYLQMNSLKPEDTAVYYCAAKSYRGSVKLRWSERGYWGQGTQVTVSS
polyreactivity (PSR sort gate): high polyreactivity

QVQLVESGGGLVQAGGSLRLSCAASGLTFGTNAMGWYRQAPGKERELVAAISTSSGSTYYADSVKGRFTISRDNAKNTVYLQMNSLKPEDTAVYYCAAVTVTKMSYYRYYYWGQGTQVTVSS
polyreactivity (PSR sort gate): low polyreactivity

QVQLVESGGGLVQAGGSLRLSCAASGFIFSVYAMGWYRQAPGKERELVAAITGNGVSTYYADSVKGRFTISRDNAKNTVYLQMISLKPEDTAVYSCATYGRRWYSSRRLDYWGQGTQVTVSS
polyreactivity (PSR sort gate): low polyreactivity

QVQRVDSGGGLVQAGGSLRLTCAASGFTFSQYVMGWYRQAPGKARELVAAISYRGGSTYYADSVKGRFTISRDNAKNTVYVQMNSLKPEDTAVYYCAAVAYSWHNRYDYWGQGTQVTVSS
polyreactivity (PSR sort gate): high polyreactivity

QVQLVESGGGLDQARGSLRLSCAASGFTFNYYAMGWYRQAPGKERELVAAISSSGGSTYYADSVKGRFTISRDNAKNTVYLQMNSLKPDDTAVYYCAAPVLPGYNYWGQGTQVTVSS
polyreactivity (PSR sort gate): high polyreactivity

QVQLVESGGGLVQAGGSLRLSCAASGFIFAHNAMGWYRQAPGKARELVAAITSSGGSTYYADSVKGRFTISRDNAKNTVYLQKNSLKPEDTAVYYCNAYTYARRGYDYWGQGTQVTVSS
polyreactivity (PSR sort gate): high polyreactivity

QVQLVESGGGLVQAGGSLRLSCAASGSIFYVYAMGWYSQARGKEMELVAAISSSAGSTYYADSVKVRFTISRDNAKTTVYLQINSLIPEDTAVDYCAAKVRYSLRKYYYWGQGTQVTVSS
polyreactivity (PSR sort gate): high polyreactivity

QVQLVESGGGLVQAGGRRRLICAASGSTFVRNAMGWYRQAPGKERELVATISSGGGTKYADSVKGRFTISRDNAKNTVYLQMNSLKPEDTAVYYCAARYRSYAVRLRGYDYWGQGTQVTVSS
polyreactivity (PSR sort gate): high polyreactivity

QVQLVESGGGLVQAGGSLRLSCAASGRTFVKNAMGWYIQAPGKERELVAAISYRGGSTYYADSVKGRFTISRDNAKNTVYLQMNSLKPEDTAVYYCAAQYLYYRYGGFGYWGQGTQVTVSS
polyreactivity (PSR sort gate): high polyreactivity

QVQLVESGGGLVQAGGSLRLSCAASGSTFNNNAMGWYRQAPGKERELVAAISYTGGSTYYADSVKGRFTISRDIAKYTVYLQMNSLKPEDSAVYYCARRQARKFYYWGQGTQVTVSS
polyreactivity (PSR sort gate): high polyreactivity

QVQLVESGAGLVQAGGSLRLSCAASGFIFARYAMGWSRQAPGKERELVAAITRGGGSTYYADSVKGRFTISRDTAKNTVYLQMNSLKPEDTAVYYCAAENGALVTYGYWGQGTQVTVSS
polyreactivity (PSR sort gate): high polyreactivity

QVQIVESGGGLFQAGGSLRISCAPSGRTLRYNTMGWYRQAPGKERELVAAISIRGGSTYYADSVKGRFTISRDNAKNTVYLQMNSLKPEDTAVSYCNARFTYRWGMGYWGQGTQVTVSS
polyreactivity (PSR sort gate): high polyreactivity

QVQLVESGGGLVQAGGSLRLSCAASGSTFWTYTMGWYRQAPGKERELVAVISSTGGDTYYADSVKGRFTISRDNAKNTVYLQMNSLKPEDTAVYYCAARIRRWYAGYGGYYWGQGTQVTVSS
polyreactivity (PSR sort gate): high polyreactivity

QVQLVESGGGLVQAGGSLRLSCAASGSIYDIYAMGWYGQAPGKERELVAAIRSGDRTHYADSVKGRFTISRDNAKNTVYLQMNSLKPEDTAVYYCAADRYIYLNREHDYWGQGTQVTVSS
polyreactivity (PSR sort gate): low polyreactivity

QVQLVESGGGLVQAGGSLRLSCAASGFIFYIYAMGWYRQAPGKERELVAAITSGGSTYYADSVKGRFTISRDNAKNTVYLQMNSLKPEDTAVYFCAAESYYGYDYWGQGTQVTLSS
polyreactivity (PSR sort gate): low polyreactivity

QVQLVESGGGLVQAGGSLRLSCAASGRTFYNYAMGWYRQAPGKERELVASIRKNGGSTYYADSVKGRFTISRDNAKNTVYLQMNSLKPEDTAVYYCAARYWGISRIFPSKYDYWGQGTQVTVSS
polyreactivity (PSR sort gate): high polyreactivity

QVQLVESGGGLVQAGGSLRLSCAASGNAMGWYRQAPGNERELVAAITRRGGSTYYADSVKGRFTISRDNAKNTVYLQMNSLKPEDTAVYYCAADNPSYNLWYGYWGQGTQVTVSS
polyreactivity (PSR sort gate): low polyreactivity

QVQLVESGGGLVQAGGSLRLSCAASGRNFRVNAMGWYTQAPGKERELVAAISWIGGRTYYADSVKGRFTISRDNAKNTVYLQMNSLKPEDTAVYYCAAGTRRYYYWKYDYWGQGTQVTVSS
polyreactivity (PSR sort gate): high polyreactivity

QVQLVESGGVLVQAGGSLRLSCAASGRTFFNYAMGWYRQAPGKESEFVASISWSDVITYYADSVKGRFTISRDNAKNTVYLQMNSLKQEDTAVYYCAASKVGGGEEYWGQGTQVTVSS
polyreactivity (PSR sort gate): low polyreactivity

QVQLVESGGGLVQAGGSLRLSCAASGRIFGGYAMGWYRQAPGKEREFVAAITTSGGSTYYADSVKGRFTISRDNAKNTVYFQMNSLKPEDTAVYYCAARGYIPARFVSLVYRYYYWGQGTQVTVSS
polyreactivity (PSR sort gate): high polyreactivity

QVHLVVSGGGLVQAGGSLRLSCAASGRTFIRYAMGWYRQAPWKESELVAAITQSGGRTYYADSVKGRFTISRDNAKNTVYLQMNSLIPEDTAVYYCAAIGRYAFYYPRDYWGQGTQVTVSS
polyreactivity (PSR sort gate): high polyreactivity

QDQLEESGGGLVQAGGSLRLSCSASGSIFRRNAMGWYRQAPGKERELVAGITRSTGDTYYADSVKGRFTISRDNAKNTVYLQMNSMKPEDTAVYYCAACGSYYRDDYWGQGTQVTVSS
polyreactivity (PSR sort gate): low polyreactivity

QVQLVESGGGLVQAGGSLRLSCAASGSIFSYAMGWYRQAPGKERELVAAISRRGGRTYYADSVKGRFTISRDNEKYTVYLQMNSLKPEDTAVYYCAASGRNRKDGLYEYYYWGQGTQVTVSS
polyreactivity (PSR sort gate): high polyreactivity
